Changes are numbered by the printed parent chain.
Substrate: pcPET (post-consumer)
Assay: Proxy for plastic degradation [Released monomer concentration (HPLC/LC-MS) (TPA+MHET+BHET)]
Details: pH 9

B1: unnamed (protein)
chain: MLSFLRSTGRPERRRASLPALLLFTAALVASGLTAAPAAQAADNPYQRGPDPTNASIEAATGPFAVGTQPIVGASGFGGGQIYYPTDTSQTYGAVVIVPGFISVWAQLNWLGPRLASQGFVVIGIETSTITDLPDPRGDQALAALDWATTRSPVASRIDRTRLAAAGWSMGGGGLRRAALQRPSLKAIVGMAPWNGERNWSAVTVPTLFFGGSSDAVASPNDHAKPFYNSITRAEKDYIELRNADHFFPTSANTTMAKYFISWLKRWVDNDTRYTQFLCPGPSTGLFAPVSASMNTCPF
For B1, which “Proxy for plastic degradation” value (40 °C, 24 h) is on record?
Its value is 990 µM.

B2: unnamed (protein)
chain: B1 chain with T129V, L180C, A202C
B2 was tested. Which “Proxy for plastic degradation” value (40 °C, 24 h) did it give?
Its value is 850 µM.

B3: unnamed (protein)
chain: B1 chain with T129V, G196T
Which “Proxy for plastic degradation” value (40 °C, 24 h) does the source give for B3 here?
Its value is 840 µM.

B4: unnamed (protein)
chain: B1 chain with T129V, A257S
For B4, which “Proxy for plastic degradation” value (40 °C, 24 h) is on record?
Its value is 530 µM.

B5: unnamed (protein)
chain: B1 chain with T129V, R151A
B5 was tested. Which “Proxy for plastic degradation” value (40 °C, 24 h) did it give?
Its value is 600 µM.

B6: unnamed (protein)
chain: B1 chain with N109A, A155R, L180C, G196T, R198K, A202C, R242C, S291C
Which “Proxy for plastic degradation” value (40 °C, 24 h) does the source give for B6 here?
Its value is 1370 µM.

And the “Proxy for plastic degradation” value (60 °C, 6 h)?
Its value is 1860 µM.

B7: unnamed (protein)
chain: B1 chain with T129V, V203T
How did the “Proxy for plastic degradation” value (40 °C, 24 h) turn out when B7 was run?
The value was 170 µM.

B8: unnamed (protein)
chain: B1 chain with T129V, W168H
How did the “Proxy for plastic degradation” value (40 °C, 24 h) turn out when B8 was run?
Its value is 220 µM.

B9: unnamed (protein)
chain: B1 chain with T129V, L180C, A202C, R242C, S291C
Which results are given for B9?
Proxy for plastic degradation (40 °C, 24 h): 948 µM; Proxy for plastic degradation (60 °C, 6 h): 270 µM

B10: unnamed (protein)
chain: B1 chain with T129V, M294R
B10 was tested. Which “Proxy for plastic degradation” value (40 °C, 24 h) did it give?
The value was 310 µM.

B11: unnamed (protein)
chain: B1 chain with T129V, L133Q
Which “Proxy for plastic degradation” value (40 °C, 24 h) does the source give for B11 here?
Its value is 470 µM.

B12: unnamed (protein)
chain: B1 chain with T129V, T204C, R233C
B12 was tested. Which “Proxy for plastic degradation” value (40 °C, 24 h) did it give?
The value was 590 µM.

B13: unnamed (protein)
chain: B1 chain with I102T, T129V
Which “Proxy for plastic degradation” value (40 °C, 24 h) does the source give for B13 here?
The value was 560 µM.

B14: unnamed (protein)
chain: B1 chain with N109A, T129V, L180C, A202C, R242C, S291C
Which “Proxy for plastic degradation” value (40 °C, 24 h) does the source give for B14 here?
The value was 1080 µM.

And the “Proxy for plastic degradation” value (60 °C, 6 h)?
Its value is 420 µM.

B15: unnamed (protein)
chain: B1 chain with N109A, A155R, L180C, R198K, A202C, R242C, S291C
With B15 as the protein, how does the “Proxy for plastic degradation” value (40 °C, 24 h) read?
Its value is 1250 µM.

And the “Proxy for plastic degradation” value (60 °C, 6 h)?
The value was 1560 µM.

B16: unnamed (protein)
chain: B1 chain with T129V, R160A
With B16 as the protein, how does the “Proxy for plastic degradation” value (40 °C, 24 h) read?
The value was 680 µM.
